Source: paper PMC4557304

Assays:
Test in all cases: EMSA; with POLγB; 10 mM Mg2+, 3 mM dCTP, 0.3 mM ddGTP; EMSA: 15 µl, 10 fmol DNA, 450 fmol POLγA, 1.8 pmol POLγB where indicated; 20 mM Tris-HCl pH 7.5, 1 mM DTT, 0.1 mg/ml BSA, 10 mM MgCl2, 10% glycerol, 3 mM dCTP
POLγA H277L;POLγB = POLγA H277L;POLγB (human?;human?, UniProt P54098;Q9UHN1 26-1239;25-485, H277L|)
POLγA R275Q;POLγB = POLγA R275Q;POLγB (human?;human?, UniProt P54098;Q9UHN1 26-1239;25-485, R275Q|)
POLγA G268A;POLγB = POLγA G268A;POLγB (human?;human?, UniProt P54098;Q9UHN1 26-1239;25-485, G268A|)
POLγA S305R;POLγB = POLγA S305R;POLγB (human?;human?, UniProt P54098;Q9UHN1 26-1239;25-485, S305R|)
POLγA G303R;POLγB = POLγA G303R;POLγB (human?;human?, UniProt P54098;Q9UHN1 26-1239;25-485, G303R|)
POLγA L304R;POLγB = POLγA L304R;POLγB (human?;human?, UniProt P54098;Q9UHN1 26-1239;25-485, L304R|)
POLγA R232H;POLγB = POLγA R232H;POLγB (human?;human?, UniProt P54098;Q9UHN1 26-1239;25-485, R232H|)

Measured: binding result

POLγA R232H;POLγB, sequence (P54098 26-1239 R232H, chain 1 of 2): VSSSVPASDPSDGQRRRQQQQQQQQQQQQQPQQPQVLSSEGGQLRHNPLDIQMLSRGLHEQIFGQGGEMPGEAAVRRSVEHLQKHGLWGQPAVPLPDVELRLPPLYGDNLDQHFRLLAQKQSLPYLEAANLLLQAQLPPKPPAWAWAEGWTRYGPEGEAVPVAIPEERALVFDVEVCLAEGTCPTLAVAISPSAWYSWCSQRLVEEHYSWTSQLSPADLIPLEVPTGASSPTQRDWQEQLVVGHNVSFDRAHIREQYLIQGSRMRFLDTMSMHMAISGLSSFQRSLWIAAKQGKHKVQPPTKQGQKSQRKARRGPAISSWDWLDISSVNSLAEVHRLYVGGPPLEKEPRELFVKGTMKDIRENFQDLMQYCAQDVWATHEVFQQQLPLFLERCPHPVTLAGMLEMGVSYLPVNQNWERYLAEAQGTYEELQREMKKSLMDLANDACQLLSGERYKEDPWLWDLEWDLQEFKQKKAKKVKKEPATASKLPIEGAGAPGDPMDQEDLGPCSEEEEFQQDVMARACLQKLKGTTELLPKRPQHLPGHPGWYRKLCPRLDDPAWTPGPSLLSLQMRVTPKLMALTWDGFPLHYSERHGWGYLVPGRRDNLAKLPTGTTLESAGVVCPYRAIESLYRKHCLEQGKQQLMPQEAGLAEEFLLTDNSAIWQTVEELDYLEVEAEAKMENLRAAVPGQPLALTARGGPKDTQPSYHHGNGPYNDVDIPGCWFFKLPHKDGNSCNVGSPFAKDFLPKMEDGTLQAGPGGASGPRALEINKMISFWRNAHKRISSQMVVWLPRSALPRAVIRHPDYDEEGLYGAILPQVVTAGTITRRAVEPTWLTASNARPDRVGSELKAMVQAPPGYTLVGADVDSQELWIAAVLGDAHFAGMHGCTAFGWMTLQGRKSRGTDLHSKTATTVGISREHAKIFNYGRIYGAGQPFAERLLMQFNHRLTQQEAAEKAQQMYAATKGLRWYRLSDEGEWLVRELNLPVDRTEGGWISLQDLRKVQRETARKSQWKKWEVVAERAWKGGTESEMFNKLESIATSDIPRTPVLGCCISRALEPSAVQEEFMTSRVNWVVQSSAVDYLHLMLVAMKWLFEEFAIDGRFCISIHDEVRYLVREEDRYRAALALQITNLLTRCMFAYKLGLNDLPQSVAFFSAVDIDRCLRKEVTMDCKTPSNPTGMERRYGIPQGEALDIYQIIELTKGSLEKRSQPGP
POLγA R232H;POLγB, sequence (Q9UHN1 25-485, chain 2 of 2): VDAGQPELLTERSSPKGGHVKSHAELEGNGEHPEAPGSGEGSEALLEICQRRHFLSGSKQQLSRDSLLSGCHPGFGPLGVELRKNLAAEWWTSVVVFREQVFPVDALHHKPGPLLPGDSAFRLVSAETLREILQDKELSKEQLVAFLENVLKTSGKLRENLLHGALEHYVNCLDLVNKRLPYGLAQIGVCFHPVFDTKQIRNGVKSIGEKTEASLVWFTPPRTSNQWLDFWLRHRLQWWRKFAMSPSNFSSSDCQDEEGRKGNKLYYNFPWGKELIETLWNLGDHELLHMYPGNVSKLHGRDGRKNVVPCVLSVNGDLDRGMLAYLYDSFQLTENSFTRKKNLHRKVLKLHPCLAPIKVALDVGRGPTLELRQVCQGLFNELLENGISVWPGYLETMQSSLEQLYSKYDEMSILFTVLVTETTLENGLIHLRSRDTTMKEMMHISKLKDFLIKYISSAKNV
POLγA R275Q;POLγB, sequence (P54098 26-1239 R275Q, chain 1 of 2): as the sequence (P54098 26-1239 R232H, chain 1 of 2) above, with H207R, R250Q counted along it
POLγA R275Q;POLγB, sequence (Q9UHN1 25-485, chain 2 of 2): as the sequence (Q9UHN1 25-485, chain 2 of 2) above
POLγA S305R;POLγB, sequence (P54098 26-1239 S305R, chain 1 of 2): as the sequence (P54098 26-1239 R232H, chain 1 of 2) above, with H207R, S280R counted along it
POLγA S305R;POLγB, sequence (Q9UHN1 25-485, chain 2 of 2): as the sequence (Q9UHN1 25-485, chain 2 of 2) above
POLγA L304R;POLγB, sequence (P54098 26-1239 L304R, chain 1 of 2): as the sequence (P54098 26-1239 R232H, chain 1 of 2) above, with H207R, L279R counted along it
POLγA L304R;POLγB, sequence (Q9UHN1 25-485, chain 2 of 2): as the sequence (Q9UHN1 25-485, chain 2 of 2) above
POLγA G268A;POLγB, sequence (P54098 26-1239 G268A, chain 1 of 2): as the sequence (P54098 26-1239 R232H, chain 1 of 2) above, with H207R, G243A counted along it
POLγA G268A;POLγB, sequence (Q9UHN1 25-485, chain 2 of 2): as the sequence (Q9UHN1 25-485, chain 2 of 2) above
POLγA H277L;POLγB, sequence (P54098 26-1239 H277L, chain 1 of 2): as the sequence (P54098 26-1239 R232H, chain 1 of 2) above, with H207R, H252L counted along it
POLγA H277L;POLγB, sequence (Q9UHN1 25-485, chain 2 of 2): as the sequence (Q9UHN1 25-485, chain 2 of 2) above
POLγA G303R;POLγB, sequence (P54098 26-1239 G303R, chain 1 of 2): as the sequence (P54098 26-1239 R232H, chain 1 of 2) above, with H207R, G278R counted along it
POLγA G303R;POLγB, sequence (Q9UHN1 25-485, chain 2 of 2): as the sequence (Q9UHN1 25-485, chain 2 of 2) above

B1: primed DNA template (20/35-mer) (dsDNA)
DNA 1: CGGTCGAGTCTAGAGGAGCC
DNA 2: GACTACGTCTATCCGGGCTCCTCTAGACTCGACCG
binds: all assays above
